Legend:
human serum albumin = target: T1, human serum albumin (human, UniProt P02768 25-609); assay: Octet HTX (ForteBio), HCAb on AHC sensor, 1:1 fit
T1 construct: also called HSA

cynomolgus serum albumin = cynomolgus serum albumin (cynomolgus, UniProt A2V9Z4 25-608); assay: Octet HTX (ForteBio), HCAb on AHC sensor, 1:1 fit
mouse serum albumin [1] = target: T2, mouse serum albumin (mouse, UniProt P07724 25-608); assay: Octet HTX (ForteBio), HCAb on AHC sensor, 1:1 fit
T2 construct: also called MSA
T2 sequence (P07724 25-608 limits assumed): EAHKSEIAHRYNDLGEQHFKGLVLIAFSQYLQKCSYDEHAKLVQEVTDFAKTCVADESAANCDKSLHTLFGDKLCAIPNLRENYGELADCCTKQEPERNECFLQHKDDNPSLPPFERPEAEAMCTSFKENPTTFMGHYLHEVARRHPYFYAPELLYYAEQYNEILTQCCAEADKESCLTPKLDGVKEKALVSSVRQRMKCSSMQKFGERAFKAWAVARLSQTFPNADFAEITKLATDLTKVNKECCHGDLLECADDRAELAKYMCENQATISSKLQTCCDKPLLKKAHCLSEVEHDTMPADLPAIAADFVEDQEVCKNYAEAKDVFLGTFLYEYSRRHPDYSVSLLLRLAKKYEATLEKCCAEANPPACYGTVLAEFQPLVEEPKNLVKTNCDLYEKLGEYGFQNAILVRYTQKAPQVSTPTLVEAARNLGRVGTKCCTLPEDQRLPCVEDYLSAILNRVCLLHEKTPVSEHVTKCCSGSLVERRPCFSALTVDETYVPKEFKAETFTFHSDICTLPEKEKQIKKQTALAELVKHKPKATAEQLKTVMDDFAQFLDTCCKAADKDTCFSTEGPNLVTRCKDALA

protein A = protein A (UniProt P38507 37-327); assay: Octet HTX (ForteBio), HCAb on AHC sensor, 1:1 fit
mouse serum albumin [2] = target: T2, mouse serum albumin; assay: ratio of the Octet KD for mouse serum albumin to that for human serum albumin

Sequence of cynomolgus serum albumin (A2V9Z4 25-608 limits assumed): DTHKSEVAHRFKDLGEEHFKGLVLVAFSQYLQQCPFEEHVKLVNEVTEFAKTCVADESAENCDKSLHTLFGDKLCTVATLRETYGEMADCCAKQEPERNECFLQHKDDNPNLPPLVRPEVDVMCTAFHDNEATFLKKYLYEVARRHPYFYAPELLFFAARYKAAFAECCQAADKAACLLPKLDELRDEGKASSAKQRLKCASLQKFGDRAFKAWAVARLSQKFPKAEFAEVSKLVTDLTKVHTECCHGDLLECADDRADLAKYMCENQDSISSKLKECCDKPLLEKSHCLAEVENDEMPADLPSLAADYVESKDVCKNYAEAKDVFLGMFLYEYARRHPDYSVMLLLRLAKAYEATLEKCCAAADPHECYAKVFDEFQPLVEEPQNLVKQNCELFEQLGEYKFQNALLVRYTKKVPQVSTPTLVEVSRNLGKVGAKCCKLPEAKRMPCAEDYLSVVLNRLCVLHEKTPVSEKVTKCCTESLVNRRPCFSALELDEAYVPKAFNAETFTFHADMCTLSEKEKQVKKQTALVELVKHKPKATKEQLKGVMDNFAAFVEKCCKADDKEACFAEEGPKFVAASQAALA

| Binder | Kd (human serum albumin) | koff (human serum albumin) | Kd (cynomolgus serum albumin) | koff (cynomolgus serum albumin) | Kd (mouse serum albumin [1]) | koff (mouse serum albumin [1]) | Kd (protein A) | koff (protein A) | Ratio of MSA-KD to HSA-KD (mouse serum albumin [2]) |
| --- | --- | --- | --- | --- | --- | --- | --- | --- | --- |
| CNG-HSA-117 (VHH) VHH: KVQLVESGGGLVQPGNSLRLSCAASGFTFSSFGMSWVRQAPGKGLEWVSSISGSGSDTLYADSVKGRFTISRDNSKNTLYLQMNSLRAEDTAVYYCTIGGSLTRSSQGTLVTVSS | 5.56 nM | 0.000793 s⁻¹ | 4.05 nM | 0.000608 s⁻¹ | 44.8 nM | 0.00877 s⁻¹ | 1.78 nM | 0.0002 s⁻¹ | 8.07 |
| CNG-HSA-102 (VHH) VHH: KVQLLESGGGLVQPGGSLRLSCAASGFTFSSFGMSWVRQAPGKGLEWVSSISGSGSDTLYADSVRGRFTISRDNSKNTLYLQMNSLRPEDTAVYYCTIGGSLSPSSQGTLVTVSS | 4.89 nM | 0.000748 s⁻¹ | 3.65 nM | 0.000568 s⁻¹ | 41.4 nM | 0.00738 s⁻¹ | 1.7 nM | 0.0002 s⁻¹ | 8.46 |
| CNG-HSA-109 (VHH) VHH: KVQLVESGGGLVQPGNSLRLSCAASGFTFGSFGMSWVRQAPGKGPEWVSSISGSGSDTLYADSVKGRFTISRDNSKNTLYLQMNSLRPEDTAVYYCTIGGSLSRSSQGTLVTVSS | 3.5 nM | 0.000566 s⁻¹ | 3.1 nM | 0.000503 s⁻¹ | 11.9 nM | 0.00284 s⁻¹ | 1.78 nM | 0.0002 s⁻¹ | 3.4 |
| CNG-HSA-101 (VHH) VHH: KVQLVESGGGLVQPGGSLRLSCAASGFTFSSFGMTWVRQAPGKGLEWVSSISGSGSDTLYADSVRGRFTISRDNSKNTLYLQMNSLRAEDTAVYYCTIGGSLSPSSQGTLVTVSS | 5.07 nM | 0.000716 s⁻¹ | 3.58 nM | 0.000532 s⁻¹ | 16.1 nM | 0.00341 s⁻¹ | 1.84 nM | 0.0002 s⁻¹ | 3.17 |
| CNG-HSA-104 (VHH) VHH: KVQLLESGGGLVQPGGSLRLSCAASGFTFHSFGMSWVRQAPGKGLEWVSSISGSGSDTLYADSVKGRFTISRDNSKNTLYLQMNSLRPEDTAVYYCTIGGSLSRSSQGTLVTVSS | 7.71 nM | 0.00112 s⁻¹ | 6.1 nM | 0.000874 s⁻¹ | 50.6 nM | 0.0105 s⁻¹ | 1.7 nM | 0.0002 s⁻¹ | 6.57 |
| CNG-HSA-110 (VHH) VHH: KVQLVESGGGLVQPGNSLRLSCAASGFTFSSFGMSWVRQAPGKGLEWVSSISGSGGDTLYADSAKGRFTISRDNSKNTLYLQMNSLRPEDTAVYYCTIGGSLSRSSQGTLVTVSS | 5.7 nM | 0.000893 s⁻¹ | 5.2 nM | 0.000759 s⁻¹ | 38.9 nM | 0.00838 s⁻¹ | 3.67 nM | 0.000378 s⁻¹ | 6.82 |
| CNG-HSA-119 (VHH) VHH: KVQLVESGGGLVQPGNSLRLSCAASGFTFSSFGMSWVRQAPGKGLEWVSSISGSGSDALYADSAKGRFTISRDNAKTTLYLQMNSLRAEDTAVYYCTIGGSLSPSSQGTLVTVSS | 7.36 nM | 0.00109 s⁻¹ | 5.73 nM | 0.000864 s⁻¹ | 41.1 nM | 0.00854 s⁻¹ | – | – | 5.59 |
| CNG-HSA-111 (VHH) VHH: KVQLVESGGGLVQPGGSLRLSCAASGFTFSSFGMSWVRQAPGKGLEWVSSISGSGSDTLYADSVEGRFTISRDNSKNTLYLQMNSLRAEDTAVYYCTIGGSLKQSSQGTLVTVSS | 8.35 nM | 0.00117 s⁻¹ | 6.13 nM | 0.000884 s⁻¹ | 10.2 nM | 0.00231 s⁻¹ | 2.84 nM | 0.0002 s⁻¹ | 1.23 |
| CNG-HSA-116 (VHH) VHH: KVQLVESGGGLVQPGGSLRLSCAASGFTFSSFGMSWVRQAPGKGPEWVSSISGSGSDTLYADSVKGRFTISRDNSKNTLYLQMNSLRAEDTAVYYCTIGGSLRASSQGTLVTVSS | 4.65 nM | 0.000699 s⁻¹ | 3.85 nM | 0.000597 s⁻¹ | 4.56 nM | 0.00108 s⁻¹ | 1.75 nM | 0.0002 s⁻¹ | 0.98 |
| CNG-HSA-113 (VHH) VHH: GVQLLESGGGLVQPGGSLRLSCAASGFTFSSFGMSWVRQAPGKGLEWVSSISGTGSDTLYADSVKGRFTISRDNSKNTLYLQMNSLRPEDTAVYYCTIGGSLRYSSQGTLVTVSS | 15.4 nM | 0.00214 s⁻¹ | 12.1 nM | 0.0017 s⁻¹ | 52 nM | 0.0101 s⁻¹ | 1.7 nM | 0.0002 s⁻¹ | 3.38 |
| CNG-HSA-112 (VHH) VHH: KVQLLESGGGLVQPGGSLRLSCAASGFTFPSFGMSWVRQAPGKGLEWVSSISGSGSDTLYADSVKGRFTISRDNAKTTLYLQMNSLRPEDTAVYYCTIGGSVSKSSRGTLVTVSS | 8.45 nM | 0.00136 s⁻¹ | 7.43 nM | 0.00115 s⁻¹ | 66.7 nM | 0.013 s⁻¹ | 3.44 nM | 0.000375 s⁻¹ | 7.9 |
| CNG-HSA-120 (VHH) VHH: KVQLVESGGGLVQPGGSLRLSCAASGFTFSSFGMSWVRQAPGKGPEWVSSISGSGSDTLYADSVKGRFTISRDNSKNTLYLQMNSLRPEDTAVYYCTIGGSLKQSSQGTLVTVSS | 3.15 nM | 0.000507 s⁻¹ | 2.6 nM | 0.000422 s⁻¹ | 4.32 nM | 0.00107 s⁻¹ | – | – | 1.37 |
| CNG-HSA-105 (VHH) VHH: EVQLLESGGGLVQPGGSLRLSCAASGFVFSSFGMSWVRQAPGKGLEWVSSISGSGSDTLYADSVKGRFTISRDNSKNTLYLQMNSLRPEDTAVYYCTIGGSLSRSSQGTLVTVSS | 15.2 nM | 0.002 s⁻¹ | 12.7 nM | 0.00163 s⁻¹ | 154 nM | 0.0206 s⁻¹ | 2.76 nM | 0.000297 s⁻¹ | 10.1 |
| CNG-HSA-103 (VHH) VHH: KVQLVESGGGLVQPGGSLRLSCAASGFTFSSFGMTWVRQAPGKGLEWVSSISGSGSDTLYADSVRGRFTISRDNSKNTLYLQMNSLRPEDTAVYYCTIGGSLSPSSQGTLVTVSS | 4.89 nM | 0.000742 s⁻¹ | 3.62 nM | 0.000541 s⁻¹ | 15.1 nM | 0.00324 s⁻¹ | 2.02 nM | 0.000221 s⁻¹ | 3.09 |
| CNG-HSA-107 (VHH) VHH: KVQLLESGGGLVQPGGSLRLSCAASGFTFSSFGMSWVRQAPGKGLEWVSSISGSGSDTLYADSVRGRFTISRDNSKNTLYLQMNSLRAEDTAVYYCSIGGSLIRSSQGTLVTVSS | 16.8 nM | 0.00238 s⁻¹ | 13.3 nM | 0.00182 s⁻¹ | 45.6 nM | 0.00851 s⁻¹ | 3.09 nM | 0.000333 s⁻¹ | 2.72 |
| CNG-HSA-118 (VHH) VHH: KVQLVESGGGLVQPGNSLRLSCAASGFTFSSFGMSWVRQAPGKGLEWVSSISGGGSDTLYADSVRGRFTISRDNSKNTLYLQMNSLRAEDTAVYYCTIGGSLRASSQGTLVTVSS | 9.36 nM | 0.0013 s⁻¹ | 6.65 nM | 0.00102 s⁻¹ | 12 nM | 0.00274 s⁻¹ | – | – | 1.28 |
| CNG-HSA-108 (VHH) VHH: KVQLVESGGGLVQPGGSLRLSCAASGFTFGSFGMSWVRQAPGKGLEWVSSISGSGADTLYADSVKGRFTISRDNSKNTLYLQMNSLRAEDTAVYYCTIGGSLRASSQGTLVTVSS | 6.19 nM | 0.000958 s⁻¹ | 5.27 nM | 0.000794 s⁻¹ | 8.06 nM | 0.00185 s⁻¹ | 2.94 nM | 0.000294 s⁻¹ | 1.3 |

Reference: US20230037815A1 (CULLINAN THERAPEUTICS, published 2023)
